Data published in publication PMC4047056.

Molecular target: Kv2.1 subunit (unlabeled) (human) (UniProt Q14721)

midpoint of the voltage dependence of inactivation, V1/2, of whole-cell currents in HEK293 cells co-expressing Kv2.1 and Kv6.4 (Kv2.1 alone: −22.6 mV): -59.3 mV
B1: Kv6.4 subunit (unlabeled) (natural protein)
chain: MPMPSRDGGLHPRHHHYGSHSPWSQLLSSPMETPSIKGLYYRRVRKVGALDASPVDLKKEILINVGGRRYLLPWSTLDRFPLSRLSKLRLCRSYEEIVQLCDDYDEDSQEFFFDRSPSAFGVIVSFLAAGKLVLLQEMCALSFQEELAYWGIEEAHLERCCLRKLLRKLEELEELAKLHREDVLRQQRETRRPASHSSRWGLCMNRLREMVENPQSGLPGKVFACLSILFVATTAVSLCVSTMPDLRAEEDQGECSRKCYYIFIVETICVAWFSLEFCLRFVQAQDKCQFFQGPLNIIDILAISPYYVSLAVSEEPPEDGERPSGSSYLEKVGLVLRVLRALRILYVMRLARHSLGLQTLGLTVRRCTREFGLLLLFLAVAITLFSPLVYVAEKESGRVLEFTSIPASYWWAIISMTTVGYGDMVPRSVPGQMVALSSILSGILIMAFPATSIFHTFSHSYLELKKEQEQLQARLRHLQNTGPASECELLDPHVASEHELMNDVNDLILEGPALPIMHM
